Patent US12604903B2 (priority 2019, dated 2026)

Experiments:
[1] = system: Alternaria brassicicola
[2] = system: Phytophthora capsici

B1: TKPCQSDKDCKKFACRKPKVPKCINGFCKCVRAPKKVEPTKPCQSDKDCKKFACRKPKVPKCINGFCKCVR (protein)
chain: TKPCQSDKDCKKFACRKPKVPKCINGFCKCVRAPKKVEPTKPCQSDKDCKKFACRKPKVPKCINGFCKCVR
notes: two NCR13 monomers linked in tandem by the APKKVEP spacer peptide from MtDef5 defensin, 71 amino acids
antifungal activity against A. brassicicola (in words) [1]: significantly more active
Alternaria brassicicola MIC ([1]; in vitro growth inhibition): 1.5 µM
IC50 ([1]; read-out: Alternaria brassicicola IC50, in vitro growth inhibition): 750 nM
growth inhibition of P. capsici (in words) [2]: inhibited the growth
Phytophthora capsici MIC ([2]; in vitro growth inhibition): 3 µM
IC50 ([2]; read-out: Phytophthora capsici IC50, in vitro growth inhibition): 1500 nM
